From patent publication US20060141569A1, “Compositions and methods for the assay of G-protein coupled receptors and their ligands” (priority 2004, published 2006)

Target: human CRF1 receptor (human) (UniProt P34998)
Assay: cell-based or functional assay

Sequence of human CRF1 receptor (human) (P34998 24-415): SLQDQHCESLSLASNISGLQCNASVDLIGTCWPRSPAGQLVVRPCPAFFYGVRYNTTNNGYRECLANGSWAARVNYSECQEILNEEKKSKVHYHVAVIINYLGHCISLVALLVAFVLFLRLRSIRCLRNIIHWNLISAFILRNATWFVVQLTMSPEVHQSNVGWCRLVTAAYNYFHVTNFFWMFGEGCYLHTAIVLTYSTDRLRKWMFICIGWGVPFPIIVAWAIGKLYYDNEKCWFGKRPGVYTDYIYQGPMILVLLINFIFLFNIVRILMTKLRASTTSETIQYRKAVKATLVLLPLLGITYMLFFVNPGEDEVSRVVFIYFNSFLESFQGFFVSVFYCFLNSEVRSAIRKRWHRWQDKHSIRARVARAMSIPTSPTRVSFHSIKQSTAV

Work on “sauvagine (from UniProt P01144 1-40) (peptide)” yielded an FLIPR Ca^2+ response EC50, CHEM-1 cells of 12 nM, an FLIPR EC50, CRF1/CHEM-1 cells of 10 nM and a cAMP response EC50, CHEM-1 cells of 4.9 nM. For the same substance, the cAMP response EC50, CHO cells was 8.4 nM.
